Consider 5 substances from US6429297B1, “Modified avidin and streptavidin and methods of use thereof” (University of Rochester, priority 1995, dated 2002).

Data set [1] can be described thus: DACB (biotin chelate) saturation / biotin binding assay. How it is done:
The ability of the compounds of the present invention to bind to biotin can be assessed by in vitro assays known to one of ordinary skill in the art. For example, the compounds of the present invention are incubated with a molar excess of radiolabeled biotin under conditions sufficient for avidin-biotin or streptavidin-biotin binding. Biotin bound to the tested compound is separated from unbound biotin, for example by filtration. The bound biotin/modified Avid or SA ratio is determined by dividing the activity in the retentate by the specific activity of the radiolabeled biotin. The binding ratios for each modified Avid or SA compound are determined by dividing the bound moles of biotin by the moles of each compound.
In a preferred embodiment, the radiolabeled biotin is the biotin chelate deferoxamineacetylcysteinylbiotin (DACB) labeled with ^67Ga. DACB is known in the art and described for example by Rosebrough et al (1993) J. Pharm. Exp. Therap. 265:408 and in U.S. Pat. No. 5,326,778. DACB can be radiolabeled by direct addition of carrier free ^67Ga citrate (DuPont Merck Pharmaceutical Co., Billerica, Mass.). Samples of Avid, SA, modified Avid, and modified SA are incubated with a 20/1 molar excess of ^67Ga-DACB on CENTRICON-30 filters (Amicon, Beverly, Mass.) in 0.05M Tris/0.15M NaCl, pH 7.5. After two washings, the bound DACB/protein ratio is determined by dividing the bound activity in the retentate by the specific activity of ^67Ga-DACB. The binding ratio for each compound is determined by dividing the bound moles of DACB by the moles of streptavidin. […]
The purified DACB was then used to access the ability of the compounds prepared in accordance with Examples I-III to bind to biotin. […] After 2 washings, the bound DACB/protein ratio was determined by dividing the bound activity in the retentate by the specific activity of ^67Ga DACB (˜2×10^16 cpm/mole). The binding ratios for each sample were determined by dividing the bound moles of DACB by the moles of each protein. […]

Data set [2] can be described thus: blood clearance of ^131I-labelled modified SA and Avid in rabbits. The following applies: rabbit, ^131I label, over 2 hours.
Experimental: (§1) The blood clearance kinetics of the compounds of the present invention can be assessed by in vivo assays. The modified Avid and SA compounds are detectably labeled, for example by radiolabeling, injected into animals, and blood clearance is then determined by biodistribution analysis of radiolabeled samples. For example, the compounds of the present invention can be radiolabeled with ^131I by the Pierce lodobead method (Pierce, Rodeford, Ill.) and separated from free iodine for example by ultrafiltration using CENTRICON-30 filters. Experimental animals, for example, rabbits weighing about 3 kilograms, are fasted, anesthetized, and an external jugular vein is dissected and catheterized for injection and collection of blood samples. A radiolabeled compound of the present invention is injected. Whole blood samples are taken at various time intervals for about two hours. By comparing the blood clearance of galactose-modified SA with native SA, and Avid-E, the skilled artisan can determine the extent of modification that results in optimal blood clearance.
(§2) SA and Avid, 0.5 mg, were radiolabeled with starting activities of ˜0.3 mCi ^131I and ˜0.1 mCi ^131I, respectively.
(§3) Biodistribution was determined in vivo. New Zealand White rabbits, ˜3 kg, (n=3 per experiment) were fasted for 12 hours prior to the experiment and anesthetized using an intramuscular injection of chlorpromazine (25 mg/kg) followed by intravenous sodium pentobarbital (15 mg/kg). An external jugular vein was dissected and catheterized using a 5 French straight catheter for injection and collection of whole blood. The animal was placed in a supine position under the gamma camera for imaging and was then injected with [75 μg] of the radiolabeled proteins prepared above. Whole blood samples (2-3 ml) were taken at intervals for 2 hours. Planar gamma camera images (30K count acquisition) were taken at 5, 30, 60 and 120 minutes. At two hours, animals were euthanized. Major organs were removed, weighed and representative samples taken for biodistribution analysis. Blood volume was estimated to be 6% of total body weight.
A short description of data set [3]: biodistribution and gamma camera imaging of ^131I-labelled modified SA and Avid in rabbits. The following applies: rabbit; for kidney accumulation (biodistribution) / liver accumulation (biodistribution): 2 hours after injection; for planar gamma camera images, location of activity: images at 5, 30 and 120 minutes.
Experimental: as §2, §3
Details of data set [4]: species or system rabbits. To be noted: rabbit, in vivo, 0.12 mg. As to the method: 0.3 mg of SA-Tgal or SA-pTgal were-added to a microcentrifuge tube containing ˜0.5 mCi of I-131. Three Iodobeads were added and then mixed and incubated for 12 minutes at room temperature. Free I-131 was removed by ultrafiltration using centricon-30 filters. SA-Tgal and SA-pTgal concentration was determined spectrophotometrically. (E^1%280 nm=34)
0.12 mg of I-131 SA-Tgal and I-131 SA-pTgal were injected into rabbits for two hours. […] The liver accumulation for SA-Tgal was 90% compared to 16% for SA-pTgal.

The conditions of data set [5]: rabbit, in vivo.
Experimental: as §2, §3
For data set [6] the following is noted: rabbit, in vivo. The source holds these as a separate data set.
Experimental: as §1, §2, §3

Read-outs that look alike come from different tables or passages of the source.

For “Avid-N: avidin neutralized by acetylation of its lysine amino acids”, the DACB saturation analysis entry in data set [1] (sample made at NHS-Ac/Avid molar ratio 10) is “approximated the binding of DACB to native avidin”. The DACB saturation analysis entry in data set [1] (sample made at NHS-Ac/Avid molar ratio 25) is “approximated the binding of DACB to native avidin”. The “blood clearance (in words)” value in data set [2] was “cleared slower than native Avid”. In addition, in data set [3], the “kidney accumulation (biodistribution)” value is recorded as “decreased considerably”; the “liver accumulation (biodistribution)” value was “high liver accumulation”; the “planar gamma camera images, location of activity” value (from here on “planar gamma camera images”) was “dramatic reduction in kidney activity and a corresponding increase in liver activity”.

Take “SA-pTgal: acetylated Tgal modified streptavidin”: the “blood clearance (in words)” value in data set [4] is “much slower than that of the SA-Tgal”.

Turning to avidin [reference compound], in data set [2], the “blood clearance (in words)” value is “cleared quickly”. In data set [3], the “kidney accumulation (biodistribution)” value is “accumulated mostly in the liver and kidney”; the “liver accumulation (biodistribution)” value was “accumulated mostly in the liver and kidney”; the “planar gamma camera images” value is “exclusively in the liver and kidneys”.

Consider “Avid-E/N: avidin both neutralized and deglycosylated”, for which the “blood clearance (in words)” value in data set [2] is “substantially prolonged”. In addition, in data set [3], the “kidney accumulation (biodistribution)” value is “low levels in both the kidney and liver”; the “liver accumulation (biodistribution)” value was “low levels in both the kidney and liver”; the “planar gamma camera images” value is “circulatory activity with a corresponding decrease in liver and kidney activity”.

Regarding streptavidin [SA], in data set [1] (20/1 molar excess ^67Ga DACB, pH 7.5), the “DACB binding ratio (bound moles DACB per mole protein)” value was determined as 3.6. Besides, the “planar gamma camera images” value in data set [5] was “vascular activity as indicated by systemic circulation and cardiac activity”. Moreover, the “percent of injected dose circulating in the blood at 2 hours” value in data set [6] is recorded as “greater than 50%”.
